Laboratory results from publication PMC12669755.

Target: 3xFLAG::mScarlet::WAGO-4 (UniProt O62275)
Assay: in vitro phase separation (condensate partitioning, confocal fluorescence microscopy)

minimal P granules (condensates of PGL-1, PGL-3, GLH-1 and GLH-4 with poly-A+ mRNA), WT GLH-1 and GLH-4 (from UniProt Q9TZQ3;G5EBV6;P34689;O76743) GLH-1(F→A); GLH-4(F→A)
other: condensed / dilute phase mScarlet::WAGO-4 fluorescence ratio (second replicate, n = 36 ROIs, buffer-only negative control ratios in the same panel: WT 1.36, FG* 1.41, parent: 2.45): 2.09
other: condensed / dilute phase mScarlet::WAGO-4 fluorescence ratio (single experiment, n = 32-36 ROIs, buffer-only negative control ratios in the same panel: WT 1.36, FG* 1.32, parent: 3.04): 2.53
